The target in the experiment is papain (UniProt P00784).
UniProt P00784, sequence (P00784 134-345): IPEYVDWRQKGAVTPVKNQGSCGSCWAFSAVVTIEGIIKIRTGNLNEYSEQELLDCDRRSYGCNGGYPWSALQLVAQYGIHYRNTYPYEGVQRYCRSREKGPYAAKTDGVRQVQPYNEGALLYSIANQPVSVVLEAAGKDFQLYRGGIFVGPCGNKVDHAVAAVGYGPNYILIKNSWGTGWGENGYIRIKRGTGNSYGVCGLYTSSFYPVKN

Regarding “salivary tick cystatin OmC2, recombinant, from insect Sf9 cells, with C-terminal oligo His-tag (non-labeled) (natural protein)”, the active site titration of 10 nM papain with cystatin OmC2 (substrate 10 μM Z-Phe-Arg-AMC, 0.1 M phosphate buffer pH 6.0): molar ratio at which dF/dt = 0 (text: the inhibitor was 88% active) worked out at 1.16 molar ratio.

These data come from PMC5492865.
